Assay results as given in publication PMC11754652.

Target: T1, RheA (RheASal) (Streptomyces albidoflavus J1074) (UniProt O08247)
T1 sequence: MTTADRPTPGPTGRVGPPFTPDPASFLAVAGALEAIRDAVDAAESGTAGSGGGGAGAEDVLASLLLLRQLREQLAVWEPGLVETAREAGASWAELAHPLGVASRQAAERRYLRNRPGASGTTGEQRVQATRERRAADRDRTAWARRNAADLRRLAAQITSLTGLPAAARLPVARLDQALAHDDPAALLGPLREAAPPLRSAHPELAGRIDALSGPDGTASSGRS
Test: EMSA
Conditions: 20 mM Tris-HCl pH 7.5, 1 mM DTT, 5 mM MgCl2, 0.5 mg/ml BSA, 5% glycerol, 20 uL, 30 C 25 min, 4.5% native PAGE in 45 mM Tris-HCl pH 8.0, 45 mM boric acid

Sequence: GAGTGAACACCTCCAGAAGTCCAGGCAGTTGATGCCATGCGCTTCGCTTGGCACCGTTGTAACATGTCATCCGAACGATGACAAGCGAGTCGTCGTCCATCGGATGACGACCCGGAGTGATATC (double strand) [RS01 probe (one rheO)]
- binding: binds
